In the supplement of paper PMC10567573:

B1: DCTD (parent)
chain: VKGCSMYVALFPCNECAKLIIQAG
B2: TRIM35 (parent)
chain: PTCPVCKDRASPADLRTNHTLNNL

Variants of: B1
Assay: protein stability index of a GFP-peptide fusion (GPS, HEK-293T) (PSI 1-6); higher = more stable
Conditions: c terminus: a fixed tail appended
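Note: lentivirally expressed fusions sorted by FACS into six bins by GFP to DsRed ratio, PSI derived from sequencing read proportions per bin multiplied by bin number.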

Variant | protein stability index
VKGCSMYVALFPCNECAKLIIPAG | 2.51
VKGCSMYVALFPCNECAKLIIEAG | 3.39
VKGCSMYVALFPCNECAKLIIQAH | 3.84
VKGCSMYVALFPCNECAKLIIQAV | 2.98
VKGCSMYVALFPCNECAKLIIQAE | 2.98
VKGCSMYVALFPCNECAKLIIQAA | 2
VKGCSMYVALFPCNECAKLIIQAN | 2.86
VKGCSMYVALFPCNECAKLIIQAT | 3.17
VKGCSMYVALFPCNECAKLIIQAK | 1.76
VKGCSMYVALFPCNECAKLIIQPG | 2.84
VKGCSMYVALFPCNECAKLIIQLG | 5.75
VKGCSMYVALFPCNECAKLIIQGG | 2.31
VKGCSMYVALFPCNECAKLIIQEG | 2.7
VKGCSMYVALFPCNECAKLITQAG | 1.83
VKGCSMYVALFPCNECAKLIVQAG | 2.14
VKGCSMYVALFPCNECAKLIWQAG | 2.72
VKGCSMYVALFPCNECAKLIEQAG | 1.31
VKGCSMYVALFPCNECAKLILQAG | 1.76
VKGCSMYVALFPCNECAKLISQAG | 2.24

Variants of: B2
Assay: as above
Conditions: c terminus: a fixed tail appended

Variant | protein stability index
PKCPVCKDRASPADLRTNHTLNNL | 3.52
PHCPVCKDRASPADLRTNHTLNNL | 2.82
PACPVCKDRASPADLRTNHTLNNL | 3.67
PCCPVCKDRASPADLRTNHTLNNL | 2.9
PVCPVCKDRASPADLRTNHTLNNL | 3.82
PECPVCKDRASPADLRTNHTLNNL | 3.47
PSCPVCKDRASPADLRTNHTLNNL | 3.24
PMCPVCKDRASPADLRTNHTLNNL | 3.14
PNCPVCKDRASPADLRTNHTLNNL | 3.26
PQCPVCKDRASPADLRTNHTLNNL | 3.27
PFCPVCKDRASPADLRTNHTLNNL | 2.33
PDCPVCKDRASPADLRTNHTLNNL | 3.68
PYCPVCKDRASPADLRTNHTLNNL | 2.3
PPCPVCKDRASPADLRTNHTLNNL | 3.58
PLCPVCKDRASPADLRTNHTLNNL | 2.79
PICPVCKDRASPADLRTNHTLNNL | 2.71
PWCPVCKDRASPADLRTNHTLNNL | 2.2
PGCPVCKDRASPADLRTNHTLNNL | 2.95
PRCPVCKDRASPADLRTNHTLNNL | 3.12
PTCPVCKDMASPADLRTNHTLNNL | 2.97
PTCPVCKDLASPADLRTNHTLNNL | 3.07
PTCPVCKDVASPADLRTNHTLNNL | 2.9
PTCPVCKDTASPADLRTNHTLNNL | 3.5
PTCPVCKDCASPADLRTNHTLNNL | 2.97
PTCPVCKDFASPADLRTNHTLNNL | 3.11

Variant | protein stability index
PTCPVCKDQASPADLRTNHTLNNL | 3.55
PTCPVCKDAASPADLRTNHTLNNL | 2.98
PTCPVCKDNASPADLRTNHTLNNL | 3.12
PTCPVCKDIASPADLRTNHTLNNL | 2.96
PTCPVCKDDASPADLRTNHTLNNL | 3.99
PTCPVCKDGASPADLRTNHTLNNL | 3.66
PTCPVCKDPASPADLRTNHTLNNL | 3.71
PTCPVCKDEASPADLRTNHTLNNL | 3.62
PTCPVCKDKASPADLRTNHTLNNL | 3.16
PTCPVCKDSASPADLRTNHTLNNL | 3.5
PTCPVCKDHASPADLRTNHTLNNL | 3.66
PTCPGCKDRASPADLRTNHTLNNL | 3.7
PTCPRCKDRASPADLRTNHTLNNL | 2.87
PTCPICKDRASPADLRTNHTLNNL | 2.69
PTCPFCKDRASPADLRTNHTLNNL | 2.04
PTCPTCKDRASPADLRTNHTLNNL | 3.19
PTCPHCKDRASPADLRTNHTLNNL | 2.36
PTCPACKDRASPADLRTNHTLNNL | 3.33
PTCPNCKDRASPADLRTNHTLNNL | 3.3
PTCPPCKDRASPADLRTNHTLNNL | 4.71
PTCPWCKDRASPADLRTNHTLNNL | 2.78
PTCPKCKDRASPADLRTNHTLNNL | 3.59
PTCPDCKDRASPADLRTNHTLNNL | 4.16
PTCPQCKDRASPADLRTNHTLNNL | 3.38
PTCPCCKDRASPADLRTNHTLNNL | 3.15

Variant | protein stability index
PTCPLCKDRASPADLRTNHTLNNL | 2.47
PTCPECKDRASPADLRTNHTLNNL | 3.65
PTCPYCKDRASPADLRTNHTLNNL | 1.91
PTCPSCKDRASPADLRTNHTLNNL | 3.43
PTCPMCKDRASPADLRTNHTLNNL | 2.76
ETCPVCKDRASPADLRTNHTLNNL | 2.75
NTCPVCKDRASPADLRTNHTLNNL | 2.41
TTCPVCKDRASPADLRTNHTLNNL | 2.99
STCPVCKDRASPADLRTNHTLNNL | 2.8
WTCPVCKDRASPADLRTNHTLNNL | 1.6
QTCPVCKDRASPADLRTNHTLNNL | 2.7
KTCPVCKDRASPADLRTNHTLNNL | 2.82
HTCPVCKDRASPADLRTNHTLNNL | 2.95
CTCPVCKDRASPADLRTNHTLNNL | 3.87
ITCPVCKDRASPADLRTNHTLNNL | 2.63
LTCPVCKDRASPADLRTNHTLNNL | 2.62
DTCPVCKDRASPADLRTNHTLNNL | 3.2
GTCPVCKDRASPADLRTNHTLNNL | 2.17
MTCPVCKDRASPADLRTNHTLNNL | 2.62
YTCPVCKDRASPADLRTNHTLNNL | 2.47
ATCPVCKDRASPADLRTNHTLNNL | 2.64
RTCPVCKDRASPADLRTNHTLNNL | 2.56
VTCPVCKDRASPADLRTNHTLNNL | 2.85
FTCPVCKDRASPADLRTNHTLNNL | 2.11
PTCPVCQDRASPADLRTNHTLNNL | 3.37

Variant | protein stability index
PTCPVCCDRASPADLRTNHTLNNL | 2.68
PTCPVCNDRASPADLRTNHTLNNL | 3.13
PTCPVCIDRASPADLRTNHTLNNL | 3.18
PTCPVCDDRASPADLRTNHTLNNL | 3.65
PTCPVCMDRASPADLRTNHTLNNL | 2.87
PTCPVCLDRASPADLRTNHTLNNL | 2.91
PTCPVCRDRASPADLRTNHTLNNL | 2.72
PTCPVCGDRASPADLRTNHTLNNL | 2.72
PTCPVCVDRASPADLRTNHTLNNL | 3.45
PTCPVCSDRASPADLRTNHTLNNL | 2.68
PTCPVCFDRASPADLRTNHTLNNL | 2.94
PTCPVCYDRASPADLRTNHTLNNL | 2.72
PTCPVCTDRASPADLRTNHTLNNL | 2.72
PTCPVCPDRASPADLRTNHTLNNL | 4.04
PTCPVCEDRASPADLRTNHTLNNL | 3.88
PTCPVCWDRASPADLRTNHTLNNL | 2.84
PTCPVCHDRASPADLRTNHTLNNL | 3.13
PTCPVCADRASPADLRTNHTLNNL | 3.19
PTDPVCKDRASPADLRTNHTLNNL | 4.75
PTSPVCKDRASPADLRTNHTLNNL | 4.55
PTFPVCKDRASPADLRTNHTLNNL | 3.79
PTKPVCKDRASPADLRTNHTLNNL | 4
PTWPVCKDRASPADLRTNHTLNNL | 3.89
PTMPVCKDRASPADLRTNHTLNNL | 4.08
PTYPVCKDRASPADLRTNHTLNNL | 3.24

Variant | protein stability index
PTTPVCKDRASPADLRTNHTLNNL | 4.36
PTPPVCKDRASPADLRTNHTLNNL | 4.02
PTRPVCKDRASPADLRTNHTLNNL | 4.46
PTQPVCKDRASPADLRTNHTLNNL | 4.24
PTGPVCKDRASPADLRTNHTLNNL | 4.3
PTEPVCKDRASPADLRTNHTLNNL | 4.06
PTNPVCKDRASPADLRTNHTLNNL | 4.05
PTHPVCKDRASPADLRTNHTLNNL | 3.84
PTLPVCKDRASPADLRTNHTLNNL | 4.28
PTIPVCKDRASPADLRTNHTLNNL | 4.38
PTAPVCKDRASPADLRTNHTLNNL | 4.44
PTVPVCKDRASPADLRTNHTLNNL | 4.1
PTCPVCKNRASPADLRTNHTLNNL | 2.65
PTCPVCKYRASPADLRTNHTLNNL | 2.02
PTCPVCKVRASPADLRTNHTLNNL | 2.39
PTCPVCKERASPADLRTNHTLNNL | 2.75
PTCPVCKARASPADLRTNHTLNNL | 1.94
PTCPVCKHRASPADLRTNHTLNNL | 2.61
PTCPVCKWRASPADLRTNHTLNNL | 2.32
PTCPVCKIRASPADLRTNHTLNNL | 2.65
PTCPVCKPRASPADLRTNHTLNNL | 2.83
PTCPVCKKRASPADLRTNHTLNNL | 2.31
PTCPVCKRRASPADLRTNHTLNNL | 2.02
PTCPVCKFRASPADLRTNHTLNNL | 1.71
PTCPVCKCRASPADLRTNHTLNNL | 2.09

Variant | protein stability index
PTCPVCKTRASPADLRTNHTLNNL | 2.67
PTCPVCKMRASPADLRTNHTLNNL | 1.92
PTCPVCKSRASPADLRTNHTLNNL | 2.45
PTCPVCKGRASPADLRTNHTLNNL | 3.11
PTCPVCKQRASPADLRTNHTLNNL | 3
PTCPVCKLRASPADLRTNHTLNNL | 2.36
PTCAVCKDRASPADLRTNHTLNNL | 2.72
PTCEVCKDRASPADLRTNHTLNNL | 3.42
PTCLVCKDRASPADLRTNHTLNNL | 3.32
PTCDVCKDRASPADLRTNHTLNNL | 3.71
PTCVVCKDRASPADLRTNHTLNNL | 3.19
PTCTVCKDRASPADLRTNHTLNNL | 3.3
PTCMVCKDRASPADLRTNHTLNNL | 3.16
PTCYVCKDRASPADLRTNHTLNNL | 3.01
PTCCVCKDRASPADLRTNHTLNNL | 2.79
PTCIVCKDRASPADLRTNHTLNNL | 2.72
PTCHVCKDRASPADLRTNHTLNNL | 3.03
PTCWVCKDRASPADLRTNHTLNNL | 2.58
PTCNVCKDRASPADLRTNHTLNNL | 3.26
PTCKVCKDRASPADLRTNHTLNNL | 3.21
PTCFVCKDRASPADLRTNHTLNNL | 2.73
PTCGVCKDRASPADLRTNHTLNNL | 2.71
PTCSVCKDRASPADLRTNHTLNNL | 2.98
PTCQVCKDRASPADLRTNHTLNNL | 3.28
PTCRVCKDRASPADLRTNHTLNNL | 3.38

Variant | protein stability index
PTCPVGKDRASPADLRTNHTLNNL | 4.12
PTCPVPKDRASPADLRTNHTLNNL | 4.09
PTCPVLKDRASPADLRTNHTLNNL | 3.86
PTCPVFKDRASPADLRTNHTLNNL | 3.84
PTCPVQKDRASPADLRTNHTLNNL | 4.28
PTCPVAKDRASPADLRTNHTLNNL | 4.55
PTCPVTKDRASPADLRTNHTLNNL | 4.44
PTCPVVKDRASPADLRTNHTLNNL | 4.22
PTCPVEKDRASPADLRTNHTLNNL | 4.64
PTCPVHKDRASPADLRTNHTLNNL | 4.11
PTCPVKKDRASPADLRTNHTLNNL | 4.31
PTCPVNKDRASPADLRTNHTLNNL | 4.2
PTCPVYKDRASPADLRTNHTLNNL | 4.1
PTCPVSKDRASPADLRTNHTLNNL | 4.39
PTCPVIKDRASPADLRTNHTLNNL | 3.59
PTCPVMKDRASPADLRTNHTLNNL | 4.22
PTCPVRKDRASPADLRTNHTLNNL | 4.05
PTCPVWKDRASPADLRTNHTLNNL | 3.21
PTCPVDKDRASPADLRTNHTLNNL | 4.74
